Source: paper PMC11711613
Where “and” joins values, the source holds several entries; their conditions need not be identical. Equal values may be shown once.

Assays:
[1] = biological target: RctB domain IV (RctB^IV, amino acids 532 to 658) (Vibrio cholerae N16961); experiment: SEC; analytical SEC, Superdex 200 10/300, 50 mM Hepes, 200 mM NaCl, 2 mM MgCl2, 1 mM TCEP, calibrated with gel filtration standards
[2] = biological target: RctB, full length (Vibrio cholerae N16961); experiment: as above
[3] = biological target: RctB, full length (Vibrio cholerae N16961); experiment: cryo-EM 2D class averages; RctB at 0.25 mg/ml in 50 mM Hepes, 200 mM NaCl, 2 mM MgCl2, 1 mM TCEP; reference-free 2D classification

Substance | stoichiometry N [1] | stoichiometry N [2] | stoichiometry N [3]
RctB domain IV (RctB^IV, amino acids 532 to 658) (domain or fragment) | 2 |  | 
RctB, full length (natural protein) |  | 2 and 4 | 2 and 4
